The record followed here is PMC7083832, “Structural analysis of TIFA: Insight into TIFA-dependent signal transduction in innate immunity” (Scientific Reports, 2020).

For orientation: stoichiometry N means a count of units in the complex or per binding partner.

Values joined by “and” are separate entries in the source; they are usually repeats but may differ in a detail not shown here. Identical values can stand only once.

Sequences and labels used below:
B6: mouse TRAF6-C containing a part of coiled-coil domain (amino acid residues from 326 to 516) (domain or fragment, UniProt P70196 326-516, looked up)
chain: AKMETQSMYVGELKRTIRTLEDKVAEMEAQQCNGIYIWKIGNFGMHLKSQEEERPVVIHSPGFYTGRPGYKLCMRLHLQLPTAQRCANYISLFVHTMQGEYDSHLPWPFQGTIRLTILDQSEALIRQNHEEVMDAKPELLAFQRPTIPRNPKGFGYVTFMHLEALRQGTFIKDDTLLVRCEVSTRFDMGGL
notes: TRAF6, mouse, residues 326-516: part of the coiled-coil domain and the C-terminal TRAF (TRAF-C) domain; also called TRAF-C domain of TRAF6; not shown: His tag, C-terminal, kept

The target of data set [1] is B6. As to the kind of experiment: SEC; TIFAs and TRAF6-C mixed at a molar ratio of 1:1 (monomer:monomer); Superdex 200; 20 mM Tris pH 8.0, 500 mM NaCl, 2 mM EDTA, 1 mM β-mercaptoethanol. Conditions: both partners purified. On the technique in general: In gel filtration, larger molecules generally elute earlier.
Data set [2] concerns the molecule itself. As to the kind of experiment: crystal structure; hanging-drop vapour diffusion, reservoir 0.1 M MES pH 6.4, 5% (v/v) MPD (native TIFA; T9E/C36S under a similar condition); data at 100 K.
Data set [3] concerns the molecule itself. As to the kind of experiment: crystal structure; reservoir 0.1 M sodium citrate pH 5.3, 40% (v/v) PEG400 (T9D/C36S); data at 100 K.
Data set [4] deals with the molecule itself. The data set can be described thus: SEC; each protein alone; Superdex 200; 20 mM Tris pH 8.0, 500 mM NaCl, 2 mM EDTA, 1 mM β-mercaptoethanol.

B1: full-length mouse TIFA (TRAF-interacting protein with a forkhead-associated (FHA) domain) (natural protein, UniProt Q793I8 1-184, looked up)
chain: MSTFEDADTEETVTCLQMTIYHPGQQSGIFKSIRFCSKEKFPSIEVVKFGRNSNMCQYTFQDKQVSRIQFVLQPFKQFNSSVLSFEIKNMSKKTSLMVDNQELGYLNKMDLPYKCMLRFGEYQFLLQKEDGESVESFETQFIMSSRPLLQENNWPTQNPIPEDGMYSSYFTHRSSPSEMDENEL
notes: TIFA, mouse, full length, 184 amino acids, GenBank BAB86903.1; A SeMet form (E. coli B834(DE3)) was used only for phasing; also called wildtype TIFA; native TIFA; not shown: His tag, C-terminal, kept
Regarding B1, the binding result in data set [1] was “binds”. Besides, the “stoichiometry N” value in data set [2] came to 2.

B2: mouse TIFA T9D/C36S mutant (natural protein, UniProt Q793I8 1-184, looked up)
chain: MSTFEDADDEETVTCLQMTIYHPGQQSGIFKSIRFSSKEKFPSIEVVKFGRNSNMCQYTFQDKQVSRIQFVLQPFKQFNSSVLSFEIKNMSKKTSLMVDNQELGYLNKMDLPYKCMLRFGEYQFLLQKEDGESVESFETQFIMSSRPLLQENNWPTQNPIPEDGMYSSYFTHRSSPSEMDENEL
notes: TIFA, mouse, full length, 184 amino acids, GenBank BAB86903.1, with T9D (phosphomimetic) and C36S; Dimers assemble into a hexamer in the crystal; source: E. coli BL21(DE3), pET-30b(+), purified by nearly the same procedure as for native TIFA
Consider B2, for which, in data set [3], the “stoichiometry N” value was 2 and 6. The binding result in data set [1] is “binds”.

B3: mouse TIFA E39R/E138R mutant (natural protein, UniProt Q793I8 1-184, looked up)
chain: MSTFEDADTEETVTCLQMTIYHPGQQSGIFKSIRFCSKRKFPSIEVVKFGRNSNMCQYTFQDKQVSRIQFVLQPFKQFNSSVLSFEIKNMSKKTSLMVDNQELGYLNKMDLPYKCMLRFGEYQFLLQKEDGESVESFRTQFIMSSRPLLQENNWPTQNPIPEDGMYSSYFTHRSSPSEMDENEL
notes: TIFA, mouse, full length, 184 amino acids, GenBank BAB86903.1, with E39R and E138R; source: E. coli BL21(DE3), pET-30b(+), purified by nearly the same procedure as for native TIFA
With B3, the binding result in data set [1] and in data set [4] was “binds” in each case.

B4: mouse TIFA T9E/C36S mutant (natural protein, UniProt Q793I8 1-184, looked up)
chain: MSTFEDADEEETVTCLQMTIYHPGQQSGIFKSIRFSSKEKFPSIEVVKFGRNSNMCQYTFQDKQVSRIQFVLQPFKQFNSSVLSFEIKNMSKKTSLMVDNQELGYLNKMDLPYKCMLRFGEYQFLLQKEDGESVESFETQFIMSSRPLLQENNWPTQNPIPEDGMYSSYFTHRSSPSEMDENEL
notes: TIFA, mouse, full length, 184 amino acids, GenBank BAB86903.1, with T9E (phosphomimetic) and C36S; source: E. coli BL21(DE3), pET-30b(+), purified by nearly the same procedure as for native TIFA
Turning to B4, in data set [1], the binding result is on record as “binds”. Besides, the “stoichiometry N” value in data set [2] came out at 2.

B5: mouse TIFA E39R/E45R/E138R mutant (natural protein, UniProt Q793I8 1-184, looked up)
chain: MSTFEDADTEETVTCLQMTIYHPGQQSGIFKSIRFCSKRKFPSIRVVKFGRNSNMCQYTFQDKQVSRIQFVLQPFKQFNSSVLSFEIKNMSKKTSLMVDNQELGYLNKMDLPYKCMLRFGEYQFLLQKEDGESVESFRTQFIMSSRPLLQENNWPTQNPIPEDGMYSSYFTHRSSPSEMDENEL
notes: TIFA, mouse, full length, 184 amino acids, GenBank BAB86903.1, with E39R, E45R and E138R; source: E. coli BL21(DE3), pET-30b(+), purified by nearly the same procedure as for native TIFA
In the case of B5, the binding result in data set [1] and in data set [4] was “binds” in each case.

In the case of B6, the “stoichiometry N” value in data set [4] amounted to 3.
